Substitutions are numbered along the chain they refer to. Blank lines part the entries; values can stand above or below the binder they belong to.
Key:
[1] = target: T1, human IL-36α(R12), truncated (human, UniProt Q9UHA7 6-158); test: cell-based or functional assay
T1 chain: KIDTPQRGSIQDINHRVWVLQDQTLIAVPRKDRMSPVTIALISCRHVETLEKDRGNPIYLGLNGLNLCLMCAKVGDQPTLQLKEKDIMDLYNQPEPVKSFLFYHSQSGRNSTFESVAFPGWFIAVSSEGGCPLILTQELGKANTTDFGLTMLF

[2] = target: T2, cynomolgus IL-36α, truncated (cynomolgus macaque (Macaca fascicularis), UniProt Q9UHA7 14-158 (human entry), limits assumed); test: cell-based or functional assay
T2 chain: T1 chain with I2S, D3E, T4M, R7P, G8V, T24I, M34V, A40S, V74A

[3] = target: T3, human IL-36γ, truncated (human, UniProt Q9NZH8 18-169); test: cell-based or functional assay
T3 sequence: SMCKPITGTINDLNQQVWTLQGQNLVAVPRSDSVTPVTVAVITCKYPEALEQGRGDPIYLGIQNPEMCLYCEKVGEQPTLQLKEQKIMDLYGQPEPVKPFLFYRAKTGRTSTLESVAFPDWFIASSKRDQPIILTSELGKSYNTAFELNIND

[4] = target: T4, cynomolgus IL-36γ, truncated (cynomolgus macaque (Macaca fascicularis), UniProt Q9NZH8 18-167 (human entry), limits assumed); test: cell-based or functional assay
T4 chain: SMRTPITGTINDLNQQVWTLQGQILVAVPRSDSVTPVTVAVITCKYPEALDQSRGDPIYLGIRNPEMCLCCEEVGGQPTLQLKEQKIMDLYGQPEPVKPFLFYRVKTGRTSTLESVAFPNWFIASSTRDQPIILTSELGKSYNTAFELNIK

[5] = target: T1, human IL-36α(R12), truncated; test: cell-based or functional assay
[6] = target: T3, human IL-36γ, truncated; test: cell-based or functional assay; remark: listed apart in the source
[7] = target: T1, human IL-36α(R12), truncated; test: cell-based or functional assay
[8] = target: T3, human IL-36γ, truncated; test: cell-based or functional assay; remark: listed apart in the source
[9] = target: T1, human IL-36α(R12), truncated; test: SPR, Biacore, 1:1 Langmuir fit
Method: (§1) The humanized antibodies obtained in Example 6 were tested for their binding to recombinant human or cynomolgus macaque IL36a and IL-36γ in Biacore assays. The association time was set to 60 seconds, and the final dissociation time was set to 600 seconds. Equilibrium dissociation constant KD (kd/ka) of exemplary antibodies was determined using a 1:1 Langmuir fit model (see Tables 17-18 below).

[10] = target: T3, human IL-36γ, truncated; test: SPR, Biacore, 1:1 Langmuir fit
Method: as §1

[11] = target: T2, cynomolgus IL-36α, truncated; test: SPR, Biacore, 1:1 Langmuir fit
Method: as §1

[12] = target: T4, cynomolgus IL-36γ, truncated; test: SPR, Biacore, 1:1 Langmuir fit
Method: as §1

[13] = target: T1, human IL-36α(R12), truncated; test: SPR, Biacore, 1:1 Langmuir fit; heads of c3 and c4 printed swapped
Method: as §1

[14] = target: T3, human IL-36γ, truncated; test: as above
Method: as §1

[15] = target: T2, cynomolgus IL-36α, truncated; test: as above
Method: as §1

[16] = target: T4, cynomolgus IL-36γ, truncated; test: as above
Method: as §1

[17] = target: T1, human IL-36α(R12), truncated; test: SPR, Biacore T200, antibody on chip, IL-36 as analyte, 1:1 Langmuir fit
Method: (§2) Antibodies were further tested for their binding to recombinant human or cynomolgus IL36α, IL-36γ in Biacore assays. In order to kinetically analyze the binding activity of the IL-36α and IL-36γ dual antagonist antibodies, the binding activity to human and cynomolgus IL-36α and IL-36γ was measured by surface plasmon resonance method (SPR). All of the following manipulations were carried out using a Biacore T200 (GE Healthcare Life Sciences, Pittsburgh, Pa.).
(§3) To determine antibody affinity to human and cynomolgus IL36, recombinant antibodies were immobilized on a CM5 sensor chip (cat# BR100012, GE Healthcare Life Sciences, Pittsburgh, Pa.) by an amine coupling chemistry. In particular, the kinetic assay was carried out by immobilizing on the chip approximately 2000 RU of recombinant antibody. Thereafter, recombinant human or cynomolgus IL36 proteins, serially diluted from a high concentration, were allowed to run at a flow rate of 30 μL/min onto the chip for 420 seconds. The dissociation time was 3600 seconds and the binding curves were measured at 25° C. Regeneration was performed with 10 mM glycine pH 1.5 for 30s. Alternatively, the analytes were injected with increasing concentrations in a single cycle, the surface not being regenerated between injections, using a method referred to as “single cycle kinetics.” In particular, either anti-human or anti-mouse Fc specific antibodies were immobilized on a CM5 sensor chip (cat# BR100012, GE Healthcare Life Sciences, Pittsburgh, Pa.) by an amine coupling chemistry. Thereafter, IL-36α and IL-36γ dual antagonist mouse/human chimeric or mouse antibodies were captured at approximately 200 RUs, followed by injections of increasing concentrations of recombinant human and cynomolgus IL36 proteins. The association time was 300 seconds, and the final dissociation time was 1200 seconds. At the end of the analyte injections, the surface was regenerated with either 3M MgCl₂ (anti-human Fc capture antibody) for 30 s or 10 mM glycine-HCl pH 1.7 for 180 s (anti-mouse IgG capture antibody).
(§4) The raw data were double referenced by subtraction of the signals from a reference flow cell without immobilized ligand and a buffer blank. The sensorgram corresponding to each concentration was obtained.

[18] = target: T3, human IL-36γ, truncated; test: as above
Method: as §2, §3, §4

[19] = target: T2, cynomolgus IL-36α, truncated; test: as above
Method: as §2, §3, §4

[20] = target: T4, cynomolgus IL-36γ, truncated; test: as above
Method: as §2, §3, §4

[21] = target: T3, human IL-36γ, truncated; test: cell-based or functional assay; remark: listed apart in the source
[22] = target: T5, human IL-36α (R&D Systems cat#6995-IL-010/CF) (human, UniProt Q9UHA7 6-158); test: cell-based or functional assay
T5 sequence (looked up): T1 chain with R7Q

B2: 144L249B LV9 HV11 (antibody, V domains shown)
VH: QVQLVQSGAEVKKPGASVKVSCKASGFNIKDTYIYWVRQAPGQGLEWIGRIDPAIGTTRYDPKFQGKATLTTDTSTNTAYLELSSLRSEDTAVYYCARYDYSGSSFYFDYWGQGTLVTVSS
VL: QAVVTQEPSLTVSPGGTVTLTCRSSTGAVTTSNYANWVQEKPGQLFTGLIGGTNDRAPGVPARFSGSLLGGKAALTLSGAQPEDEADYFCALWYSNHLVFGGGTKLTVL
notes: Humanized
IC50 of IL-8 secretion (AlphaLISA), HaCaT, 10 nM human IL-36γ [21]: 16.5 nM
IC50 of IL-8 secretion (AlphaLISA), HaCaT, 10 nM human IL-36α [22]: 7.68 nM
Kd [9]: 1.29 nM
Kd [10]: 0.795 nM
Kd [11]: 0.927 nM
Kd [12]: 0.913 nM
koff [13]: 0.00102 s⁻¹
kon [13]: 791000 M⁻¹ s⁻¹
koff [14]: 0.000706 s⁻¹
kon [14]: 888000 M⁻¹ s⁻¹
koff [15]: 0.00135 s⁻¹
kon [15]: 1.46e+06 M⁻¹ s⁻¹
koff [16]: 0.000866 s⁻¹
kon [16]: 948000 M⁻¹ s⁻¹

B4: 144L249B LV9 HV10b (antibody, V domains shown)
VH: B2 VH with N77S
VL: B2 VL
notes: Humanized
IC50 of IL-8 secretion (AlphaLISA), HaCaT, 10 nM human IL-36γ [21]: 20.7 nM
IC50 of IL-8 secretion (AlphaLISA), HaCaT, 10 nM human IL-36α [22]: 6.61 nM
Kd [9]: 1.39 nM
Kd [10]: 0.942 nM
Kd [11]: 0.944 nM
Kd [12]: 1.13 nM
koff [13]: 0.000989 s⁻¹
kon [13]: 714000 M⁻¹ s⁻¹
koff [14]: 0.000728 s⁻¹
kon [14]: 772000 M⁻¹ s⁻¹
koff [15]: 0.00126 s⁻¹
kon [15]: 1.34e+06 M⁻¹ s⁻¹
koff [16]: 0.000969 s⁻¹
kon [16]: 855000 M⁻¹ s⁻¹

B5: 144L249B LV7a HV11 (antibody, V domains shown)
VH: B2 VH
VL: B2 VL with E40Q, L45A, L77I
notes: Humanized
IC50 of IL-8 secretion (AlphaLISA), HaCaT, 10 nM human IL-36γ [21]: 25.8 nM
IC50 of IL-8 secretion (AlphaLISA), HaCaT, 10 nM human IL-36α [22]: 9.2 nM
Kd [9]: 1.37 nM
Kd [10]: 0.789 nM
Kd [11]: 1 nM
Kd [12]: 0.91 nM
koff [13]: 0.00103 s⁻¹
kon [13]: 749000 M⁻¹ s⁻¹
koff [14]: 0.000678 s⁻¹
kon [14]: 859000 M⁻¹ s⁻¹
koff [15]: 0.0014 s⁻¹
kon [15]: 1.4e+06 M⁻¹ s⁻¹
koff [16]: 0.000831 s⁻¹
kon [16]: 913000 M⁻¹ s⁻¹

More lines, in order of falling Kd [9], values ahead:

IC50 of IL-8 secretion, HaCaT, 10 nM human IL-36α, FIG. 1C [1]: 14.5 nM
IC50 of IL-8 secretion, HaCaT, 10 nM cynomolgus IL-36α, FIG. 2B [2]: 7.94 nM
IC50 of IL-8 secretion, HaCaT, 10 nM human IL-36γ, FIG. 1F [3]: 9.81 nM
IC50 of IL-8 secretion, HaCaT, 10 nM cynomolgus IL-36γ, FIG. 2D [4]: 11.8 nM
IC50 of IL-8 secretion, primary human keratinocytes, 6.25 nM human IL-36α, FIG. 4A [5]: 13.8 nM
IC50 of IL-8 secretion, primary human keratinocytes, 8.4 nM human IL-36γ, FIG. 4C [6]: 9.28 nM
IC50 of IL-8 secretion, primary human monocytes, 20 nM human IL-36α, FIG. 5A [7]: 27.1 nM
IC50 of IL-8 secretion, primary human monocytes, 6 nM human IL-36γ, FIG. 5C [8]: 12 nM
IC50 of IL-8 secretion, primary human monocytes, 50 nM human IL-36γ, FIG. 5D [8]: 38.7 nM
Kd [9]: 1.53 nM
Kd [10]: 0.399 nM
Kd [11]: 1.16 nM
Kd [12]: 0.288 nM
koff [13]: 0.000785 s⁻¹
kon [13]: 515000 M⁻¹ s⁻¹
koff [14]: 0.000395 s⁻¹
kon [14]: 990000 M⁻¹ s⁻¹
koff [15]: 0.00105 s⁻¹
kon [15]: 905000 M⁻¹ s⁻¹
koff [16]: 0.000326 s⁻¹
kon [16]: 1.13e+06 M⁻¹ s⁻¹
Kd [17]: 1.67 nM
koff [17]: 0.000899 s⁻¹
kon [17]: 539000 M⁻¹ s⁻¹
Kd [18]: 0.377 nM
koff [18]: 0.000194 s⁻¹
kon [18]: 516000 M⁻¹ s⁻¹
Kd [19]: 1.28 nM
koff [19]: 0.000839 s⁻¹
kon [19]: 658000 M⁻¹ s⁻¹
Kd [20]: 0.312 nM
koff [20]: 0.000197 s⁻¹
kon [20]: 631000 M⁻¹ s⁻¹
B1: 144L249B (antibody, V domains shown)
VH: EVQLQQSGAELVKPGASVKLSCTASGFNIKDTYIYWVKQRPEQGLEWIGRIDPAIGTTRYDPKFQGKATLTADTSSNTAFLQLSSLTSEDTAVYYCARYDYSGSSFYFDYWGRGTTLTVSS
VL: QAVVTQESALTTSPGETVTLTCRSSTGAVTTSNYANWVQEKPDHLFTGLIGGTNNRAPGVPARFSGSLIGDKAALTITGAQTEDEAIYFCALWYSNHLVFGGGTKLTVL
notes: Mouse monoclonal from hybridoma; mouse IgG heavy and lambda light chain; also called mouse antibody 144L249B

IC50 of IL-8 secretion (AlphaLISA), HaCaT, 10 nM human IL-36γ [21]: 11.5 nM
IC50 of IL-8 secretion (AlphaLISA), HaCaT, 10 nM human IL-36α [22]: 5.13 nM
Kd [9]: 0.992 nM
Kd [10]: 0.625 nM
Kd [11]: 0.674 nM
Kd [12]: 0.552 nM
koff [13]: 0.000843 s⁻¹
kon [13]: 850000 M⁻¹ s⁻¹
koff [14]: 0.000625 s⁻¹
kon [14]: 999000 M⁻¹ s⁻¹
koff [15]: 0.00103 s⁻¹
kon [15]: 1.53e+06 M⁻¹ s⁻¹
koff [16]: 0.000603 s⁻¹
kon [16]: 1.09e+06 M⁻¹ s⁻¹
B3: 144L249B LV9 HV10c (antibody, V domains shown)
VH: B2 VH with T72A
VL: B2 VL
notes: Humanized
